The results in this text go back to patent US20060292657A1, “Phex substrates and methods using same” (priority 2003, published 2006).

Holding throughout (assay): Kinetic parameters for hydrolysis of internally quenched fluorogenic peptides by secPHEX
What all share (type): biochemical, human
Conditions in all cases: other: 37° C., 10 mM Bis-Tris buffer pH 5.5, 150 mM NaCl

Substrate in data set [1]: CC(C)[C@H](NC(=O)[C@H](CC(=O)O)NC(=O)[C@H](Cc1ccc(O)cc1)NC(=O)CNC(=O)[C@H](CC(N)=O)NC(=O)c1ccccc1N)C(=O)N[C@@H](Cc1ccc(O)cc1)C(=O)N[C@@H](Cc1c[nH]cn1)C(=O)N[C@@H](CCC(N)=O)C(=O)NCCNc1ccc([N+](=O)[O-])cc1[N+](=O)[O-]
The procedure, abridged:
(§1)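 Purified human recombinant secPHEX hydrolysing internally quenched fluorogenic peptides at 37° C in 10 mM Bis-Tris pH 5.5, 150 mM NaCl; fluorescence (ex 320, em 420 nm) followed continuously, <5% substrate hydrolysed, inner-filter corrected. Km and kcat by non-linear regression; kcat/Km under [S]<<Km where applicable.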

Substrate in data set [2]: C[C@H](NC(=O)[C@H](CO)NC(=O)[C@H](CCC(N)=O)NC(=O)[C@@H](NC(=O)[C@H](Cc1c[nH]cn1)NC(=O)[C@H](CCCNC(=N)N)NC(=O)[C@H](CCCNC(=N)N)NC(=O)c1ccccc1N)[C@@H](C)O)C(=O)N[C@@H](CCC(=O)O)C(=O)N[C@@H](CC(=O)O)C(=O)N[C@@H](CC(=O)O)C(=O)N[C@@H](CO)C(=O)N[C@@H](CCC(=O)O)C(=O)N[C@@H](CCCNC(=N)N)C(=O)N[C@@H](CCC(N)=O)C(=O)NCCNc1ccc([N+](=O)[O-])cc1[N+](=O)[O-]
The method in brief:
as §1

Substrate in data set [3]: C[C@H](NC(=O)[C@H](CC(=O)O)NC(=O)[C@H](CCC(=O)O)NC(=O)[C@H](CO)NC(=O)[C@H](CCCNC(=N)N)NC(=O)c1ccccc1N)C(=O)NCC(=O)N[C@@H](Cc1ccccc1)C(=O)N[C@@H](CCC(N)=O)C(=O)NCCNc1ccc([N+](=O)[O-])cc1[N+](=O)[O-]
The method in brief:
as §1

Substrate in data set [4]: CC(C)C[C@H](NC(=O)[C@H](Cc1c[nH]cn1)NC(=O)[C@@H](NC(=O)c1ccccc1N)[C@@H](C)O)C(=O)N[C@@H](CC(=O)O)C(=O)N[C@H](C(=O)N[C@@H](CCCCN)C(=O)N[C@@H](CCCCN)C(=O)N[C@@H](CCC(N)=O)C(=O)NCCNc1ccc([N+](=O)[O-])cc1[N+](=O)[O-])[C@@H](C)O
The method in brief:
as §1

B1: human recombinant secPHEX (Homo sapiens) (protein)
chain: SLQAKQEYCLKPECIEAAAAILSKVNLSVDPCDNFFRFACDGWISNNPIPEDMPSYGVYPWLRHNVDLKLKELLEKSISRRRDTEAIQKAKILYSSCMNEKAIEKADAKPLLHILRHSPFRWPVLESNIGPEGVWSERKFSLLQTLATFRGQYSNSVFIRLYVSPDDKASNEHILKLDQATLSLAVREDYLDNSTEAKSYRDALYKFMVDTAVLLGANSSRAEHDMKSVLRLEIKIAEIMIPHENRTSEAMYNKMNISELSAMIPQFDWLGYIKKVIDTRLYPHLKDISPSENVVVRVPQYFKDLFRILGSERKKTIANYLVWRMVYSRIPNLSRRFQYRWLEFSRVIQGTTTLLPQWDKCVNFIESALPYVVGKMFVDVYFQEDKKEMMEELVEGVRWAFIDMLEKENEWMDAGTKRKAKEKARAVLAKVGYPEFIMNDTHVNEDLKAIKFSEADYFGNVLQTRKYLAQSDFFWLRKAVPKTEWFTNPTTVNAFYSASTNQIRFPAGELQKPFFWGTEYPRSLSYGAIGVIVGHEFTHGFDNNGRKYDKNGNLDPWWSTESEEKFKEKTKCMINQYSNYYWKKAGLNVKGKRTLGENIADNGGLREAFRAYRKWINDRRQGLEEPLLPGITFTNNQLFFLSYAHVRCNSYRPEAAREQVQIGAHSPPQFRVNGAISNFEEFQKAFNCPPNSTMNRGMDSCRLW
notes: pure soluble form of PHEX (secPHEX); made in house
Take B1: the Michaelis constant (Km) was 9.0 µM in data set [1], 1.7 µM in data set [2], 4.1 µM in data set [3] and 15.0 µM in data set [4]. Moreover, the kcat in data set [1] is 0.01 s⁻¹; in data set [2] it was 0.15 s⁻¹; in data set [3], 0.06 s⁻¹; in data set [4], 0.02 s⁻¹. Further, the kcat/Km in data set [1] stood at 1100 M⁻¹ s⁻¹; in data set [2] it was 88200 M⁻¹ s⁻¹; in data set [3] it was 14600 M⁻¹ s⁻¹; in data set [4] it was 1300 M⁻¹ s⁻¹.
